Experimental data taken from US20250327097A1, “ORGANISMS PRODUCING LESS CROTONIC ACID” (Global Bioenergies, priority 2021, published 2025).

Tested on: 3-methylcrotonic acid
Format: biochemical, Yersinia frederiksenii
Set-up: key: “+” representing a low increase in activity; “++++” representing a high increase in activity

Molecule	Activity relative to WT
G380V-K391L-L432W-L434M (protein) MFLKSLREQINLLKRQGDLRIINRPVDSYLEAAAIIRRSTETKAPVPLMTNIKGYPGCSIVGGLAALSSNPEYPLSRVAMSLGLSTTASAQSIVQYLIDGLKKTPYLPVEIDSNSAPCKQNILRGEDASLAHFPIPQVHQHDGNRYVNTWGVFIVESPDGQWCNWSIQRVQYLNDRQMIALVFPSQHISDIWEEWVKIGKPMPYALVQGCEPIVPYIAGLPLLERNVNEAEYIGALYGKGIEVVKCETHDLRVPASSEVVIEGYFAITREGVEGPFGEFAGYIPNENSLQPILSITAISWQDDPIWPVVAEGKPVDEYHTCSGIGDAAAIQNVLLTANLPVSFVWVPLYSACHLMIVSINRHWRQTHPDLTSEQLTKKVVDVIHQTRNSILLPKIVVLDDDVDPADTESLLWALATRIHPERKRYFYESCIWPMLSCYSEEERHNRKGKRVIIDALLPENHGAISSFDYAYPDDIKQRVLMHWETDFSHD	+
E224P-I283T-N285P-N287T-Q290E-S322T-N388M-S389H-K394R-C430A-i430aG-L432F-L434W-S436N-I453L-dG462 (protein) MFLKSLREQINLLKRQGDLRIINRPVDSYLEAAAIIRRSTETKAPVPLMTNIKGYPGCSIVGGLAALSSNPEYPLSRVAMSLGLSTTASAQSIVQYLIDGLKKTPYLPVEIDSNSAPCKQNILRGEDASLAHFPIPQVHQHDGNRYVNTWGVFIVESPDGQWCNWSIQRVQYLNDRQMIALVFPSQHISDIWEEWVKIGKPMPYALVQGCEPIVPYIAGLPLLPRNVNEAEYIGALYGKGIEVVKCETHDLRVPASSEVVIEGYFAITREGVEGPFGEFAGYTPPETSLEPILSITAISWQDDPIWPVVAEGKPVDEYHTCTGIGDAAAIQNVLLTANLPVSFVWVPLYSACHLMIVSINRHWRQTHPDLTSEQLTKKVGDVIHQTRMHIKLPRIVVLDDDVDPADTESLLWALATRIHPERKRYFYESAIFPWLNCYSEEERHNRKGKRVILDALLPENHGAISSFDYAYPDDIKQRVLMHWETDFSHD	++++
